Test: yeast display, Sf9 membrane polyspecificity reagent, FACS + sequencing; frameworks hold sequencing errors
How it was run: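 Using colony PCR, genes from sorted yeast display clones were amplified, then sequenced on MiSeq at 2 × 250 and filtered by CDR length. The clones had been stained with 10% biotinylated, detergent-solubilized Sf9 membrane reagent for 1 hour at 4 °C and sorted by FACS into low and high (top ~1%) gates on anti-HA and streptavidin fluorescence. Polyreactivity labels come from the gate of origin.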

Row | Sequence | polyreactivity (PSR sort gate)
1 | QVQLVESGGGLVQAGGSLRLSCAASGITFPANAMGWYRQAPGKQWELVAAISSYGGSTYYADSVKGRFTISRDNEKNTVDLQMNSLKPEDTAVYYCAAYLSSLGRKYYYWGQGTQVTVSS | high polyreactivity
2 | QVQLVESGGRLVQAGGSLRLSCAASGSTFHSYVMGWYRQAPGKERELVAAITSRGGSTNYADSVKGRFTISRDNAKNTVYLKMNSLIPEDTAVYYCAADCYWGWSYFRYDYWGQVTQVTVSS | low polyreactivity
3 | QVQLVESGGGLVQAGGSLRLSCAASGSTVVYYAMGWYRQAPGKERELVAAISSSGGTTYYADSVKGRFTISRDNAKNRVYLQMKSLKPEDTAVYYCAAPYASRGNEYWGQGTQVTVSS | high polyreactivity
4 | QVQLVESGRGLVQAGGSLRLSCAASGRIFYYAMGWYRQAPGKERELVAAITRSGGRTYYADSVKGRFTISRDNEKNTVYLQMNSLKPEDTAVYDCAADYGAQLWGYYPTFDYWGQGTQVTVSS | high polyreactivity
5 | HVQLVESGGGLVQAGGSLRLSCAASGFIFWRYAMGWYRQAPGKERELVAAISVSGTRTYYADSVKGRFTISRDNAKNTVYLQMNSLKPEDTAVYYCAADRYYGEDYWGQGTQVTVSS | high polyreactivity
6 | QVQLVESGGGLVQAGGSLRLSCAASGRIFFGYAMGWYRPAPGKERVLVAAISSRGGSTYYADSVKGRFTISRDNAKNTVYLKMNSLKPEDTAVYYCARKRYKRSTRTEFGYWGQGTQVTVSS | high polyreactivity
7 | QVQLVESGGGLVQAGGSLRLSCAASGRTLIDNAKGWYRPAPGKERELVASISITNTYYADSVKGRFTISRDNAKNTVYLQMNSLKPEDTAVYYCNAEARPRGVDVEEAYFRYDYWGHGTQVTVSS | low polyreactivity
8 | QVQLVESGGGLVQAGGSLRLSCAASGRIFWPYAMGWYRQAPGKERELVAVITSGTTTYYADSVKGRFTISRDNAKNTVYLKMNSLKPEDTAVYYCNIFSRARRYFEYDYWGQGTQVTVSS | low polyreactivity
9 | QVQLVESGGVLVQAGGSLRLSCADSGRTFWYYAMGWYRQAPGKEREWVASISASGGSTFYADSVKGRFTISRDNAKNTVSLQMNSLKPEDTAVYYRAAKNAVWRRYEYWGQGTQVTVSS | high polyreactivity
10 | QVQLVESGGGLDQAGGSLRLICAASGIIFASNAMGWYRQAPGKERELVATITGSVAGTYYADSVKGRFTISRDNAKPTVYLQMNSLKPEDTAVYDCAAKRGWNVAGYDYWGQRTQVTVSS | low polyreactivity
11 | QVQLVESGGGLVQAGGSLRLSCAASGSTLYPNAMGWYRQAPGKERELVAAISSGSSTYADSVKGRFTISRDNAKNTVYLQMNRLKPEDTAVYYCNADSRIHYDYWGQGTQVTVSS | low polyreactivity
12 | QVHLVESGGGLVQAGGSLRLSCAASGRTFILNAMGWYRQAPGKERELVAAISWSGGSTYYADSVKGRFTISRDNAKNTVYLQMNSLKPEDTAVYYCAKDSPGDGIGYGYWGQGTQVTVSS | low polyreactivity
13 | QVQLVESGRGLFQAGGSLRLSCAASGRIFRYYAMGWSRQATGKERELVAAISGSGGSTYYAASVKGRFTISGDNAKNTVYLLMNSLKPEDNAVYYCNALYRIASGEGDLWGQGTQVTVSS | low polyreactivity
14 | QVQLVESGGGLVQAGGSLRLSCAASGRTLRPYAMGWYRQAPGKEREFVAAIRWSGGSTYYADSVKGRFTISRDNAKNTVYLQMNSLKPEDTAVYYCAASFLTYYLSLYDYWGQGTQVTVSS | high polyreactivity
15 | QVHLQESGGLVQAGGLRLSCAASGSVSYHEAMGWYRQAPAKERELVATISFGANTNYADSVKGRFTISRDNAKHTVYLHMNSLKPEDTAVYYCAAESLFDDYYGYWGQGTQVTVSS | low polyreactivity
16 | QVQLVDSGGGLVQAGGSLRLTCDASGFIILYYAMRWYRQEPGKERELVADISRGADTKYADSVKGRFTISRDNAKNTVYLQMNSLKPEDTAVYYCATDITTFCFPYPGVELGYWGQGTQVTVSS | low polyreactivity
17 | QVQLVESGGGLVQAGGSLRLSCAASGRSFSPYAMGWYRQAPGKERELVAAISYDDGITYYADSVKGRFTISRDTAKNTVYLQMNSLKPEDTAVYYCAADSVTRPAGDYWGQGTQVTVSS | low polyreactivity
18 | QVQLVESGGGLVQAGGSLRLSCAASGFIFSGYVMGWYRQAPGKERELVAAITGSDGSTYYADSVKGRFTISRDNAKNTVYLQMNSLKPEDTAVYYCATTFQYYWFSLYDYWGQGTQVTVSS | low polyreactivity
19 | QDQLVESGGGLVQAGGSLRLSCAASGFIFLPYVMGWYRQAPGKERELVAAISGGGGITYYADSVKGRFTISRDNAKNTVYLQMNSLKPEDTAVYYCAARRQRFGYWGQGTQVTVSS | low polyreactivity
20 | QVQLVESGGGLVQAGGSLRLSCAASGSISYFNDMGWYRQAPGKERELVAAIRDSGGITYADSVKGRFTISRDNAKNTVYLQMNSLKPEDTAVYYCATYGNEIYDYWGLGTQVTVSS | low polyreactivity
21 | QVQLVESGGGLVQAGGSLRLSCAASGITFAAYAMGWYRQAPGKERELVAAISTSGDSTYYADSVKGRFTISRDNAKNTVYLQMNSLKPEDTAVYYCAARAVRLSSSKVDYWGQGTQVTVSS | high polyreactivity
22 | QVQLVESGGGLVQAGGSLRLSCDASGLTFPYYTMGWYRQAPGKERELVADINGSGGSTYYADSVKGRFTISLDNAKNTFYLQMNSLKPEDTEVYYCAAGSWQVAISYDYWGQGTQVTVSS | low polyreactivity

Row | Sequence | polyreactivity (PSR sort gate)
23 | QVQLVESRGGSVQAGGSLRLSCAASGNIFYYAMGWYRQAPGKERELVAAISASGGSSYYADSVKGRFTISRDNAKNTVYLQMNSLKPEDTAVYYCKAVFYRGPGAQGDPRRRSDYWGQGTQVTVSS | high polyreactivity
24 | QVQLEESGGGLVQAGGSLRLSCAASGSTFFIYAMGWYRQAPGKERELVAVIRNIDVRTYYADSVKGRFTISRDNAKNTVYLQMNSLKPEDTAVYYCAADELLDESVDMYYWGQGTQVTVSS | low polyreactivity
25 | QVQLVESGGGLVQAGGSLRLSCAASGRTFRYYVMGWYRQAPGKERELVASITWRGTSTYYADSVKGRFTISRDNAKNTVYLQMNSLKPEDTAVYYCNAQGVYFRWSGYDYWGQGTQVTVSS | high polyreactivity
26 | QVQLVETGGGVVQAGGSLRISCAASGRIFLYYTMGWYRQAPGIERELVATIRSGDSTIYADAVKGRFTISRDNAKNTVYLQMNTLTPEDTAVYYCAADWDIFQQGANGAPYDYWGQGTQVTVSS | low polyreactivity
27 | KVQLGVSGGGLVQAGGSLRLSCASSGFIFRYYAMGWSRQAPGKERELVAGISSGGSTYYADSVKGRFTISRDNAKNTVYLKMNSLKPEDTAVYYCNAVYSSGVDGSEGFDYWGQGTQVTVSS | low polyreactivity
28 | QVQLVESGGGLVQAGGSLRLSCAASGLTFSYYAMGWYRPAPGKERELVAAITSSGGNTYYADSVKGRFTISRDNEKNTVYLQMNSLKPEETAVYYCNARRYLRGYGYGYWGQGTQVTVSS | high polyreactivity
29 | QVQLVESGGGLVQAGGSLRLSCAASGSTFAYAMGCYRQAPGKERELVAAIRTTGGSTYYADSVKGRFTISRDNAKNTVYFQMNSLNPEDSAVYYCAAVWGYGQYGSKYYYKYGYWGQGTQVTVSS | high polyreactivity
30 | QVQLVESGVGLVQAGGSLRLSCAASGRIFTPYAMGWYRQAPGKERELVAAITGSGGITYYADSVKGRFTISRDNSKNTVYLQMNSLKPEDTAVYYCNADTPVWDGHAYPGDYWGQGTQVTVSS | low polyreactivity
31 | QVQLVDSGGGLVQAGPSLRLSCAASGSTFYLYAMGWYRQAPGKERELVAAITFRGSRTYYADSVKGRFTISRDNAKNTVYFQMNSLKPEDTAVYYCAADSYIERAYGSLGVWRYDYWGQGTQVTVSS | low polyreactivity
32 | QVQLVESGGGLVQAGGSLRLSCAASGSIFYSYAMGWYRQAPGKERELVAAISRSGVSTYYADSVKGRFTISRDNAKNTVYLQMNSLKPEDTAVYYCASPYFVSYQGYDYWGQGTQVTVSS | high polyreactivity
33 | QVQLVESGGGLVQAGGSLRLSCAASGSTFYAYAMGWYRQAPGKERELVAAIDSGGSTYYADSVKGRFTISRDNAKNTFYLEMNSLKPEDTAVYYCAVRHRYTRAYWGRDYWGQGTQVTVSS | low polyreactivity
34 | QVQLVESGGGLVHAGGSLRLSCAASGRTFKYYGMGWYREAPGKERELVATISRSSSRTYYADSVKGRFTISRDNAKNTVYLQMNSLKPEDTAVYYCAADRWGARRKQYDENGYWGQGTQVTVSS | high polyreactivity
35 | QVQLVESGGGLVQAGGSLRLSCAASGFTFSSYAMGGYRQAPGKERELVAAISSNGRTYYADSVKGRFTISRDNAKNTVYLQMNSQKREDTAVYYCARNIPVSYYRYGYWGQGTQVTVSS | high polyreactivity
36 | QEQLQESGGGLVQAGGSLRLSCAASGNITLDTAMGWSRQAPRKEREFVASINDGGITNYADSVKGRFTICRDNAKNSVYLQMNSLKPEDTAVFYCAARWIWRGYDYWGQGTQVTVSS | high polyreactivity
37 | QVQLVESGGGLVQAGGRLRLSCAASGFIFSLYAMGWYRQAPGKERELVAGISESGGSTYYADSVKGRFTISRDNAKNTVYLQMNSLKPEDTAVYYCNADDTVYFIKAGDYWGQGTQVTVSS | high polyreactivity
38 | QVQLVESCGGLVQAGGSLRLSCAASGSTFSSYAMGWYSQAPGKERELVAAISSSGGTSTYADSVKGPFTISRDNAKNTVYLQMNSLKPEDTAVYYCNTDRFRRLYDYWGQGTQVTVSS | high polyreactivity
39 | QVQHVESRGGLVQAGGSLRLSCAASGLILSGYTMGWYRQAPGKERELVAAISRSGGSTYYADSVKGRFTISRDNAKNTVYLQMNSLKPEDTAVYYCAKVPIYRYGVWAMNYWGQGTLVTVSS | high polyreactivity
40 | QVQLQESGGGLVQAGGSLRLSCAASGYISHADEMGWYRQAPGKEHELVASISNGGSTNYADSVKGRFTISRDNAKNTVYLQMNSLKSEDTAVYYCAAWTGQVDIHYYWGLGTQVTVSS | low polyreactivity
41 | QVQLVESGGGLVQAGGSLRLSCAASGLIFVYYAMGWYRQAPGKERELVAAITSRGGSTYYADSVKGRFTISRDNAKNTVYLQMNSLKPEDTAVYYCAAVYRHGAFPRYGYWGQGTQVTVSS | high polyreactivity
42 | QVQLVESGGGLVQAGGSLRLSCAASGSIFDFNAMGWYRQAPGKERELVAAITWGGGSTYYADSVKGRFTISRDNAKNTVYLQMNSLKPEDTAVYYCNAAYGRYRYDYWGQGTQVTVSS | low polyreactivity
43 | QVQLVESGGGLVQAGGSLRLSCAASGRTFSVNAMGWYRQAPGKERELVATISYRGGSTYYADSVKGRFTISRDNAKNTVYLQMNSLKPEDTAVYYCAAGWRYWGRIYRDYDSWGQGTQVTVSS | high polyreactivity
